Laboratory results published in patent US20210032312A1 (Janssen / Centocor, published 2021).
Where a chain is given by its changes, count along the chain named. Each block holds one binder with its values, some of them ahead of it.

What was measured:
[1] = molecular target: T1, cynomolgus monkey CD8A on primary cynomolgus monkey CD8+ T cells (cynomolgus monkey, UniProt P01732 23-235 (human entry)); experiment: flow cytometry, cyno CD8+ T cells, 2 uM FN3
T1 construct: also called Cyno CD8alpha

[2] = molecular target: T2, human CD8 alpha (CD8A) on primary human CD8+ T cells (human, UniProt P01732 22-235); experiment: flow cytometry, human CD8+ T cells, 0.2 uM FN3
T2 construct: whole, on cells; also called hCD8A
T2 sequence (P01732 22-235): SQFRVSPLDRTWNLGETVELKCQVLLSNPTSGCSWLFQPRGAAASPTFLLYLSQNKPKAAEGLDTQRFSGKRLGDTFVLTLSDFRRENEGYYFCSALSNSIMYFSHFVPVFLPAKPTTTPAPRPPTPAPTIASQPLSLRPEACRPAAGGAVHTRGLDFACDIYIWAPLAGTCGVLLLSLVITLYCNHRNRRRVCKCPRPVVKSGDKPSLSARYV

[3] = molecular target: T2, human CD8 alpha (CD8A) on primary human …; experiment: flow cytometry, human CD8+ T cells, 2 uM FN3
In house human CD8A-Fc = molecular target: T3, In house human CD8A-Fc (human, UniProt P01732 22-182, limits assumed); experiment: SPR (ProteOn), captured hCD8A-Fc
T3 construct: Captured on goat anti-human Fc on a ProteOn GLC chip; also called hCD8A-Fc; recombinant human CD8 alpha; not shown: linker with flag (and polyhistidine) tag and Fc of human IgG1
T3 sequence (P01732 22-182 limits assumed): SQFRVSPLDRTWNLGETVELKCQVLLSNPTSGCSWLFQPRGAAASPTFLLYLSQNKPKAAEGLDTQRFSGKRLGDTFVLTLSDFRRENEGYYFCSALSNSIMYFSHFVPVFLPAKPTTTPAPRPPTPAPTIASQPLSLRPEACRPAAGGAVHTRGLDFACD

[4] = molecular target: T1, cynomolgus monkey CD8A on primary …; experiment: flow cytometry, cyno CD8+ T cells, 0.2 uM FN3

T1 sequence (P01732 other isoform, or with tags, fused parts or gaps limits assumed): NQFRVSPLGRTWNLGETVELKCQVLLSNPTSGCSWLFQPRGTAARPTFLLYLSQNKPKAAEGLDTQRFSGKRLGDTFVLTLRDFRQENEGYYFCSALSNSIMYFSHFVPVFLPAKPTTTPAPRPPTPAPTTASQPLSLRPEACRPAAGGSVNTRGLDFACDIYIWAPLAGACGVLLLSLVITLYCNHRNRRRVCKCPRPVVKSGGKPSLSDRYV

- Cyno T-cell Binding 2 uM (MFI) [1]: 69100 MFI
- Human T-cell Binding 0.2 uM (MFI) [2]: 6130 MFI
- Human T-cell Binding 2 uM (MFI) [3]: 37600 MFI
- koff (In house human CD8A-Fc): 0.000114 s⁻¹
- Cyno T-cell Binding 0.2 uM (MFI) [4]: 8770 MFI
B7: P282DR9P1359_G7 (designed binder)
chain: LPAPKNLVVSRVTEDSARLSWTAPDAAFDSFAITYIEKEHIEDGEAIVLTVPGSERSYDLTGLKPGTEYWVPIWGVKGGANSWPLSAIFTT
notes: FN3 domain

- Cyno T-cell Binding 2 uM (MFI) [1]: 78600 MFI
- Human T-cell Binding 0.2 uM (MFI) [2]: 2670 MFI
- Human T-cell Binding 2 uM (MFI) [3]: 26600 MFI
- koff (In house human CD8A-Fc): 0.000517 s⁻¹
- Cyno T-cell Binding 0.2 uM (MFI) [4]: 6010 MFI
B8: P282DR9P1359_G4 (designed binder)
chain: LPAPKNLVVSRVTEDSARLSWTAPDAAFDSFEIAYPEWPPPGEAIVLTVPGSERSYDLTGLKPGPEYFVVIQGVKGGDPSFPLSAIFTTGGNHHHHH
notes: FN3 domain

- Cyno T-cell Binding 2 uM (MFI) [1]: 86700 MFI
- Human T-cell Binding 0.2 uM (MFI) [2]: 6590 MFI
- Human T-cell Binding 2 uM (MFI) [3]: 35600 MFI
- koff (In house human CD8A-Fc): 0.000554 s⁻¹
- Cyno T-cell Binding 0.2 uM (MFI) [4]: 16100 MFI
B10: P282DR9P1359_F11 (designed binder)
chain: LPAPKNLVVSRVTEDSARLSWTAPDAAFDSFDIFYPELPIHGEAIVLTVPGSERSYDLTGLKPGTEYWVNITGVKGGDFSWPLSAIFTT
notes: FN3 domain

The remaining lines, values behind:

B1: P282DR9P1359_F2 (designed binder)
chain: LPAPKNLVVSRVTEDSARLSWTAPDAAFDSFNIAYPEALHPGYGEAIVLTVPGSERSYDLTGLKPGTEYWVIIGGVKGGQKSWPLSAIFTTGGHHHDHH
notes: FN3 domain
- Cyno T-cell Binding 2 uM (MFI) [1]: 38200 MFI
- Human T-cell Binding 0.2 uM (MFI) [2]: 3050 MFI
- Human T-cell Binding 2 uM (MFI) [3]: 18400 MFI
- koff (In house human CD8A-Fc): 0.000722 s⁻¹
- Cyno T-cell Binding 0.2 uM (MFI) [4]: 4030 MFI

B2: P282DR9P1359_F7 (designed binder)
chain: LPAPKNLVVSRVTEDSARLSWTAPDAAFDSFAIAYPEWPPQGEAIVLTVPGSERSYDLTGLKPGTEYFVVIYGVKGGSYSAPLSAIFTT
notes: FN3 domain
- Cyno T-cell Binding 2 uM (MFI) [1]: 96500 MFI
- Human T-cell Binding 0.2 uM (MFI) [2]: 6930 MFI
- Human T-cell Binding 2 uM (MFI) [3]: 38300 MFI
- koff (In house human CD8A-Fc): 0.000365 s⁻¹
- Cyno T-cell Binding 0.2 uM (MFI) [4]: 26300 MFI

B3: P282CR9P1358_F11 (designed binder)
chain: LPAPKNLVVSRVTEDSARLSWTAPDAAFDSFLIAYPEWPIFEGEAIVLTVPGSERSYDLTGLKPGTEYFVVIYGVKGGEQSSPLSAIFTT
notes: FN3 domain
- Cyno T-cell Binding 2 uM (MFI) [1]: 62400 MFI
- Human T-cell Binding 0.2 uM (MFI) [2]: 749 MFI
- Human T-cell Binding 2 uM (MFI) [3]: 6420 MFI
- koff (In house human CD8A-Fc): 0.00135 s⁻¹
- Cyno T-cell Binding 0.2 uM (MFI) [4]: 6580 MFI

B4: P282DR9P1359_C5 (designed binder)
chain: B3 chain with L32W, A34T, I40D, F41P, E42G, Q80I, S81Y
notes: FN3 domain
- Cyno T-cell Binding 2 uM (MFI) [1]: 95700 MFI
- Human T-cell Binding 0.2 uM (MFI) [2]: 5550 MFI
- Human T-cell Binding 2 uM (MFI) [3]: 31000 MFI
- koff (In house human CD8A-Fc): 0.000174 s⁻¹
- Cyno T-cell Binding 0.2 uM (MFI) [4]: 14200 MFI

B5: P282DR9P1359_B2 (designed binder)
chain: LPAPKNLVVSRVTEDSARLSWTAPDAAFDSFWIAYTEWPIPYEEAGQEGEAIVLTVPGSERSYDLTGLKPGTEYWVSIYGVKGGPNSQPLSAIFTT
notes: FN3 domain
- Cyno T-cell Binding 2 uM (MFI) [1]: 60900 MFI
- Human T-cell Binding 0.2 uM (MFI) [2]: 2730 MFI
- Human T-cell Binding 2 uM (MFI) [3]: 22200 MFI
- koff (In house human CD8A-Fc): 0.000638 s⁻¹
- Cyno T-cell Binding 0.2 uM (MFI) [4]: 4470 MFI

B6: P282DR9P1359_A7 (designed binder)
chain: B7 chain with A32R, T34G, I36P, K38L, H40K, I41L, E42G, D43Y, P72I, A80E
notes: FN3 domain
- Cyno T-cell Binding 2 uM (MFI) [1]: 83900 MFI
- Human T-cell Binding 0.2 uM (MFI) [2]: 8760 MFI
- Human T-cell Binding 2 uM (MFI) [3]: 38400 MFI
- koff (In house human CD8A-Fc): 0.000754 s⁻¹
- Cyno T-cell Binding 0.2 uM (MFI) [4]: 22800 MFI

B9: P282DR9P1359_E2 (designed binder)
chain: B10 chain with D32N, L38I, P39V, I40T, H41W, T72V, F79N
notes: FN3 domain
- Cyno T-cell Binding 2 uM (MFI) [1]: 77700 MFI
- Human T-cell Binding 0.2 uM (MFI) [2]: 4820 MFI
- Human T-cell Binding 2 uM (MFI) [3]: 28500 MFI
- koff (In house human CD8A-Fc): 0.00206 s⁻¹
- Cyno T-cell Binding 0.2 uM (MFI) [4]: 10900 MFI
